Experimental data taken from patent US20230212266A1 (FRED HUTCHINSON CANCER CENTER, published 2023).
Like-named read-outs stand apart in the source and are kept apart here.

Assays:
Experiment in all cases: BLI, mAb on anti-human Fc probe, antigen in solution
[1] = target: T1, SARS-CoV-2 receptor binding domain (RBD) (SARS-CoV-2, UniProt P0DTC2 319-591)
[2] = target: T1, SARS-CoV-2 receptor binding domain (RBD); remark: listed apart in the source
[3] = target: T1, SARS-CoV-2 receptor binding domain (RBD); remark: listed apart in the source
[4] = target: T1, SARS-CoV-2 receptor binding domain (RBD); remark: listed apart in the source
[5] = target: T1, SARS-CoV-2 receptor binding domain (RBD); remark: listed apart in the source
[6] = target: T1, SARS-CoV-2 receptor binding domain (RBD); remark: listed apart in the source
[7] = target: T1, SARS-CoV-2 receptor binding domain (RBD); remark: listed apart in the source
[8] = target: T1, SARS-CoV-2 receptor binding domain (RBD); remark: listed apart in the source
[9] = target: T1, SARS-CoV-2 receptor binding domain (RBD); remark: listed apart in the source
[10] = target: T1, SARS-CoV-2 receptor binding domain (RBD); remark: listed apart in the source

B1: CV40 (antibody, V domains shown)
VH: QVQLVQSGAEVKKPGASVKVSCKASGYTFSSYGISWVRQDPGQGLEWMGWISAYNGNTNYAQKLQGRVTMTTDTSTSTAYMELRSLRSDDTAVYYCARVGLWWLGHPDAFDIWGQGTMVTVSS
VL: DIQMTQSPSSLSASVGDRVTITCRASQGIRNDLGWYQQKPGKAPKRLIYAASSLQSGVPSRFSGSGSGTEFTLTISSLQPEDFATYYCLQHNSYPLTFGGGTKVEIK
notes: expressed as IgG
- binding result [1]: no binding

B2: CV39 (antibody, V domains shown)
VH: QVQLVESGGGVVQPGRSMRLSCAASGFNLSSYAMHWVRQASGKGLEWVSLISYDGSIKYYADSVKGRFTVSGDNSKNTLFLQMSSLRADDSALYYCVRGGVSGPNAFDIWGQGTTVTVSS
VL: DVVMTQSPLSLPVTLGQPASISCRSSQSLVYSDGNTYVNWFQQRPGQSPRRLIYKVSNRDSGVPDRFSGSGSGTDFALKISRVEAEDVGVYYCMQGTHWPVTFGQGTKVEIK
notes: expressed as IgG
- binding result [2]: no binding

B3: CV25 (antibody, V domains shown)
VH: QVQLQESGPGLVKPSQTLSLTCTVSGGSISSGDYYWSWIRQPPGKGLEWIGYIYYSGSTYYNPSLKSRVTISVDTSKNQFSLKLSSVTAADTAVYYCARDHHYDFWSGYSSYYYYGMDVWGQGTTVTVSS
VL: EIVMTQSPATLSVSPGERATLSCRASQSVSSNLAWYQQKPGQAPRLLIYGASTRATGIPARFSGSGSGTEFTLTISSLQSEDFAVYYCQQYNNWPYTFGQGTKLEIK
- binding result [3]: no binding

B4: CV37 (antibody, V domains shown)
VH: QVQLVQSGAEVKKPGASVKVSCKASGYTFTSYGISWVRQAPGQGLEWMGWISAYNGNTNYAQKLQGRVTMTTDTSTSTAYMELRSLRSDDTAVYYCARARVAYDYIWGSYRYKAFDYWGQGTLVTVSS
VL: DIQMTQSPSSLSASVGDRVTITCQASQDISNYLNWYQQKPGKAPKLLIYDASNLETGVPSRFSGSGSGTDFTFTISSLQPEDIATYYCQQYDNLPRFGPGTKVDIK
notes: expressed as IgG
- binding result [4]: no binding

B5: CV33 (antibody, V domains shown)
VH: QVQLVQSGAEVKKPGASVKVSCKASGYTFTSYDISWVRQAPGQGLEWMGWISAYNGNTNYAQKLQGRVTMTTDTSTSTAYMELRSLRSDDTAVYYCARDSVAGIYYYYGMDVWGQGTTVTVSS
VL: QSVLTQPPSVSGAPGQRVTISCTGSSSNIGAGYDVHWYQQLPGTAPKLLIYGNSNRPSGVPDRFSGSKSGTSASLAITGLQAEDEADYYCQSYDSSLSGPVVFGGGTKLTVL
notes: expressed as IgG
- binding result [5]: no binding

B6: CV32 (antibody, V domains shown)
VH: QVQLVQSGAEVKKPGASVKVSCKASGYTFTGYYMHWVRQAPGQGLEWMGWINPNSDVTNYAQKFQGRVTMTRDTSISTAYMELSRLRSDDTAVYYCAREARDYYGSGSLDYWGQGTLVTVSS
VL: QSVLTQPPSVSAAPGQKVTISCSGSSSNIGNNYVSWYQQLPGTAPKLLIYDNNKRPSGIPDRFSGSKSGTSATLGITGLQTGDEADYYCGTWDSSLSAVVFGGGTKLTVL
notes: expressed as IgG
- binding result [6]: no binding

B7: CV36 (antibody, V domains shown)
VH: QVQLVQSGAEVKKPGASVKVSCKASGYTFTGYYMHWVRQAPGQGLEWMGWINPNSGGTNYVQKFQGRVTMTRDTSISTAYMELNRLRSDDTAVYFCARDLTTTAGTDYYYGMDVWGQGTTVTVSS
VL: SYELTQPPSVSVSPGQTARITCSGDALPKQYAYWYQQKPGQAPVLVIYKDTERPSGIPERFSGSSSGTTVTLTISGVQAEDEADYYCQSADSSGTYMIFGTGTKVTVL
notes: expressed as IgG
- binding result [7]: no binding

B8: CV23 (antibody, V domains shown)
VH: QVQLVQSGAEVKKPGASVKVSCKASGYTFTSYAMHWVRQAPGQRLEWMGWINAGNGNTKYSQKFQGRVTITRDTSASTAYMELSSLRSEDTAVYYCARVWGYCSGGSCYVDAFDIWGQGTMVTVSS
VL: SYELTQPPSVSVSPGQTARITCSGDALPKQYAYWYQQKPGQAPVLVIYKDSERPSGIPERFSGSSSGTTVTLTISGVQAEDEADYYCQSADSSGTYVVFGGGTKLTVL
notes: expressed as IgG
- binding result [8]: no binding

B9: CV34 (antibody, V domains shown)
VH: QVQLVESGGGVVQPGRSLRLSCAASGFTFSSYAMHWVRQAPGKGLEWVAVISYDGSNKYYADSVKGRFTISRDNSKNTLYLQMNSLRAEDTAVYYCARSYGGSYYYGMDVWGQGTTVTVSS
VL: SYELTQPHSVSVATAQMARITCGGNNIGSKAVHWYQQKPGQDPVLVIYSDSNRPSGIPERFSGSNPGNTATLTISRIEAGDEADYYCQVWDSSSDHVVFGGGTKLTVL
notes: expressed as IgG
- binding result [9]: no binding

B10: CV41 (antibody, V domains shown)
VH: QVQLVESGGGVVQPGRSLRLSCAASGFTFSSYAMHWVRQAPGKGLEWVAVISYDGSNKYYADSVKGRFTISRDNSKNTLYLQMNSLRAEDTAVYYCARTKGGSYFAPFDYWGQGTLVTVSS
VL: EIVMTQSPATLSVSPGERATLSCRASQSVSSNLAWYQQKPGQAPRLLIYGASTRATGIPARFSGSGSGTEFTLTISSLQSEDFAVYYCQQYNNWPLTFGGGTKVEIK
notes: expressed as IgG
- binding result [10]: no binding
